Source: the supplement of paper PMC9112550, “Optimization of the antimicrobial peptide Bac7 by deep mutational scanning” (BMC Biology, 2022)

What follows are sequences tested on Escherichia coli TOP10 (assay: shrunken log2 fold change of peptide-encoding DNA abundance (4.5 h post-induction vs induction); higher = less antimicrobial activity (less host growth inhibition)). Settings: time post-induction: 4.5 h; library: site-saturation at positions 5, 18, 19, 20.
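Further: peptides expressed intracellularly from a pBAD plasmid library in pooled LB shake-flask culture, induced with 0.3% L-arabinose, DNA abundance read by NGS, three biological replicates, DESeq2 with apeglm shrinkage.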

Row | Sequence | shrunken log2 fold change
1 | RRIRYRPPRLPRPRPRPFHVPRP | -0.184
2 | RRIRYRPPRLPRPRPRPFIRPRP | -0.942
3 | RRIRYRPPRLPRPRPRPFKAPRP | -0.55
4 | RRIRYRPPRLPRPRPRPFLGPRP | -0.0439
5 | RRIRYRPPRLPRPRPRPFNYPRP | 0.0209
6 | RRIRYRPPRLPRPRPRPFQTPRP | -0.0251
7 | RRIRYRPPRLPRPRPRPFRIPRP | -0.535
8 | RRIRYRPPRLPRPRPRPFRNPRP | -0.462
9 | RRIRYRPPRLPRPRPRPFRQPRP | 0.0775
10 | RRIRYRPPRLPRPRPRPFSNPRP | 0.0549
11 | RRIRYRPPRLPRPRPRPFTYPRP | -0.529
12 | RRIRYRPPRLPRPRPRPFVNPRP | 0.017
13 | RRIRYRPPRLPRPRPRPGALPRP | 0.137
14 | RRIRYRPPRLPRPRPRPGAMPRP | 0.986
15 | RRIRYRPPRLPRPRPRPGDCPRP | -0.189
16 | RRIRYRPPRLPRPRPRPGEMPRP | -0.0218
17 | RRIRYRPPRLPRPRPRPGFIPRP | 2.02
18 | RRIRYRPPRLPRPRPRPGHKPRP | -0.485
19 | RRIRYRPPRLPRPRPRPGHRPRP | 0.0683
20 | RRIRYRPPRLPRPRPRPGKRPRP | -0.0167
21 | RRIRYRPPRLPRPRPRPGLIPRP | -0.0546
22 | RRIRYRPPRLPRPRPRPGLVPRP | -0.217
23 | RRIRYRPPRLPRPRPRPGNDPRP | -0.356
24 | RRIRYRPPRLPRPRPRPGPEPRP | 0.0444
25 | RRIRYRPPRLPRPRPRPGPFPRP | -0.189

Row | Sequence | shrunken log2 fold change
26 | RRIRYRPPRLPRPRPRPGPGPRP | 0.304
27 | RRIRYRPPRLPRPRPRPGPTPRP | -0.0479
28 | RRIRYRPPRLPRPRPRPGQQPRP | 0.0541
29 | RRIRYRPPRLPRPRPRPGRRPRP | 2.15
30 | RRIRYRPPRLPRPRPRPGSDPRP | -0.898
31 | RRIRYRPPRLPRPRPRPGSFPRP | -0.0331
32 | RRIRYRPPRLPRPRPRPGTCPRP | -0.729
33 | RRIRYRPPRLPRPRPRPGTVPRP | 0.0427
34 | RRIRYRPPRLPRPRPRPGVQPRP | 0.0651
35 | RRIRYRPPRLPRPRPRPGVWPRP | 0.171
36 | RRIRYRPPRLPRPRPRPGYQPRP | -0.241
37 | RRIRYRPPRLPRPRPRPHAMPRP | -0.221
38 | RRIRYRPPRLPRPRPRPHCNPRP | -0.366
39 | RRIRYRPPRLPRPRPRPHDDPRP | 0.0514
40 | RRIRYRPPRLPRPRPRPHDGPRP | 0.015
41 | RRIRYRPPRLPRPRPRPHDWPRP | -0.0744
42 | RRIRYRPPRLPRPRPRPHEMPRP | 2.66
43 | RRIRYRPPRLPRPRPRPHGIPRP | 0.0191
44 | RRIRYRPPRLPRPRPRPHGNPRP | -0.573
45 | RRIRYRPPRLPRPRPRPHGVPRP | -0.261
46 | RRIRYRPPRLPRPRPRPHHDPRP | -0.917
47 | RRIRYRPPRLPRPRPRPHHHPRP | -1.09
48 | RRIRYRPPRLPRPRPRPHIGPRP | 0.0489
49 | RRIRYRPPRLPRPRPRPHKCPRP | -0.259
50 | RRIRYRPPRLPRPRPRPHKHPRP | -0.91

Row | Sequence | shrunken log2 fold change
51 | RRIRYRPPRLPRPRPRPHKPPRP | -0.171
52 | RRIRYRPPRLPRPRPRPHLEPRP | -0.021
53 | RRIRYRPPRLPRPRPRPHLHPRP | -1.12
54 | RRIRYRPPRLPRPRPRPHLSPRP | -0.235
55 | RRIRYRPPRLPRPRPRPHMHPRP | -0.988
56 | RRIRYRPPRLPRPRPRPHNCPRP | -0.381
57 | RRIRYRPPRLPRPRPRPHNIPRP | -0.238
58 | RRIRYRPPRLPRPRPRPHNPPRP | -1.15
59 | RRIRYRPPRLPRPRPRPHNVPRP | -0.14
60 | RRIRYRPPRLPRPRPRPHQAPRP | -0.0296
61 | RRIRYRPPRLPRPRPRPHSHPRP | -0.311
62 | RRIRYRPPRLPRPRPRPHTPPRP | -0.346
63 | RRIRYRPPRLPRPRPRPHTTPRP | -0.0318
64 | RRIRYRPPRLPRPRPRPHVDPRP | -0.588
65 | RRIRYRPPRLPRPRPRPHVTPRP | -0.147
66 | RRIRYRPPRLPRPRPRPHYKPRP | -0.316
67 | RRIRYRPPRLPRPRPRPIANPRP | -0.0103
68 | RRIRYRPPRLPRPRPRPICRPRP | -0.226
69 | RRIRYRPPRLPRPRPRPIDEPRP | -0.438
70 | RRIRYRPPRLPRPRPRPIECPRP | 0.00468
71 | RRIRYRPPRLPRPRPRPIEFPRP | -0.0341
72 | RRIRYRPPRLPRPRPRPIEKPRP | -0.203
73 | RRIRYRPPRLPRPRPRPIFEPRP | -0.833
74 | RRIRYRPPRLPRPRPRPIGGPRP | -0.4
75 | RRIRYRPPRLPRPRPRPIHIPRP | -0.0433

Row | Sequence | shrunken log2 fold change
76 | RRIRYRPPRLPRPRPRPIHKPRP | -0.6
77 | RRIRYRPPRLPRPRPRPIHQPRP | -0.0218
78 | RRIRYRPPRLPRPRPRPIIFPRP | 0.0131
79 | RRIRYRPPRLPRPRPRPIIYPRP | -0.522
80 | RRIRYRPPRLPRPRPRPILVPRP | -0.237
81 | RRIRYRPPRLPRPRPRPIMFPRP | -1.35
82 | RRIRYRPPRLPRPRPRPIPDPRP | 0.0657
83 | RRIRYRPPRLPRPRPRPIPLPRP | -0.418
84 | RRIRYRPPRLPRPRPRPIRIPRP | -0.144
85 | RRIRYRPPRLPRPRPRPISAPRP | -0.373
86 | RRIRYRPPRLPRPRPRPITFPRP | -0.864
87 | RRIRYRPPRLPRPRPRPITQPRP | -0.532
88 | RRIRYRPPRLPRPRPRPIYCPRP | -0.15
89 | RRIRYRPPRLPRPRPRPKAIPRP | -0.497
90 | RRIRYRPPRLPRPRPRPKCEPRP | -0.0192
91 | RRIRYRPPRLPRPRPRPKCGPRP | 0.0111
92 | RRIRYRPPRLPRPRPRPKCIPRP | -0.154
93 | RRIRYRPPRLPRPRPRPKDAPRP | -0.0259
94 | RRIRYRPPRLPRPRPRPKFMPRP | -0.633
95 | RRIRYRPPRLPRPRPRPKFNPRP | -1.1
96 | RRIRYRPPRLPRPRPRPKGFPRP | -0.0319
97 | RRIRYRPPRLPRPRPRPKILPRP | -0.247
98 | RRIRYRPPRLPRPRPRPKKCPRP | -0.0883
99 | RRIRYRPPRLPRPRPRPKLLPRP | -0.296
100 | RRIRYRPPRLPRPRPRPKLMPRP | -0.115

Row | Sequence | shrunken log2 fold change
101 | RRIRYRPPRLPRPRPRPKLYPRP | -0.65
102 | RRIRYRPPRLPRPRPRPKMTPRP | -0.728
103 | RRIRYRPPRLPRPRPRPKNGPRP | 0.013
104 | RRIRYRPPRLPRPRPRPKNIPRP | -0.127
105 | RRIRYRPPRLPRPRPRPKNTPRP | -0.579
106 | RRIRYRPPRLPRPRPRPKPEPRP | -0.0857
107 | RRIRYRPPRLPRPRPRPKQLPRP | 0.0588
108 | RRIRYRPPRLPRPRPRPKQTPRP | 0.283
109 | RRIRYRPPRLPRPRPRPKREPRP | 0.0201
110 | RRIRYRPPRLPRPRPRPKRIPRP | -0.0123
111 | RRIRYRPPRLPRPRPRPKVNPRP | -0.599
112 | RRIRYRPPRLPRPRPRPLARPRP | -0.265
113 | RRIRYRPPRLPRPRPRPLAYPRP | -0.15
114 | RRIRYRPPRLPRPRPRPLCFPRP | -0.727
115 | RRIRYRPPRLPRPRPRPLDNPRP | -0.0671
116 | RRIRYRPPRLPRPRPRPLEEPRP | -0.0801
117 | RRIRYRPPRLPRPRPRPLELPRP | 0.0293
118 | RRIRYRPPRLPRPRPRPLEYPRP | -0.443
119 | RRIRYRPPRLPRPRPRPLFIPRP | -0.683
120 | RRIRYRPPRLPRPRPRPLFQPRP | -0.76
121 | RRIRYRPPRLPRPRPRPLIIPRP | -1.2
122 | RRIRYRPPRLPRPRPRPLKCPRP | -0.301
123 | RRIRYRPPRLPRPRPRPLLQPRP | -0.309
124 | RRIRYRPPRLPRPRPRPLLVPRP | -0.692
125 | RRIRYRPPRLPRPRPRPLMSPRP | -0.0164

Row | Sequence | shrunken log2 fold change
126 | RRIRYRPPRLPRPRPRPLMTPRP | -0.181
127 | RRIRYRPPRLPRPRPRPLNKPRP | -0.449
128 | RRIRYRPPRLPRPRPRPLPEPRP | -0.323
129 | RRIRYRPPRLPRPRPRPLPHPRP | -0.375
130 | RRIRYRPPRLPRPRPRPLQDPRP | 0.0382
131 | RRIRYRPPRLPRPRPRPLQGPRP | -0.0139
132 | RRIRYRPPRLPRPRPRPLQNPRP | 0.0956
133 | RRIRYRPPRLPRPRPRPLQPPRP | -0.499
134 | RRIRYRPPRLPRPRPRPLQWPRP | -0.0328
135 | RRIRYRPPRLPRPRPRPLREPRP | 0.483
136 | RRIRYRPPRLPRPRPRPLYCPRP | -0.975
137 | RRIRYRPPRLPRPRPRPLYPPRP | -0.929
138 | RRIRYRPPRLPRPRPRPMAPPRP | 0.025
139 | RRIRYRPPRLPRPRPRPMFTPRP | -0.629
140 | RRIRYRPPRLPRPRPRPMGGPRP | -0.264
141 | RRIRYRPPRLPRPRPRPMHRPRP | -0.0541
142 | RRIRYRPPRLPRPRPRPMHVPRP | 0.214
143 | RRIRYRPPRLPRPRPRPMIFPRP | -1.43
144 | RRIRYRPPRLPRPRPRPMIMPRP | -0.0957
145 | RRIRYRPPRLPRPRPRPMKQPRP | -0.0304
146 | RRIRYRPPRLPRPRPRPMKWPRP | 0.00957
147 | RRIRYRPPRLPRPRPRPMLCPRP | -0.0838
148 | RRIRYRPPRLPRPRPRPMLMPRP | -0.13
149 | RRIRYRPPRLPRPRPRPMMMPRP | -0.497
150 | RRIRYRPPRLPRPRPRPMNEPRP | -0.103
